The supplement of paper PMC10065799, “High-throughput profiling of sequence recognition by tyrosine kinases and SH2 domains using bacterial peptide display” (eLife, 2023)

Legend:
[1] = tested on: AncSZ; assay: phosphorylation enrichment, bacterial display (enrichment ratio); higher = better substrate or ligand; peptides without Tyr show the background
[2] = biological target: EPHB1 (UniProt P54762); assay: as above
[3] = biological target: EPHB2 (UniProt P29323); assay: as above
[4] = biological target: FGFR1 (UniProt P11362); assay: as above
[5] = biological target: FGFR3 (UniProt P22607); assay: as above
[6] = tested on: Fer (mouse); assay: as above
[7] = biological target: Fes (UniProt P07332); assay: as above
[8] = biological target: Fyn (UniProt P06241); assay: as above
[9] = biological target: Hck (UniProt P08631); assay: as above
[10] = biological target: Jak2 (UniProt O60674); assay: as above
[11] = biological target: MERTK (UniProt Q12866); assay: as above
[12] = tested on: c-Abl (mouse); assay: as above
[13] = tested on: c-Src; assay: as above
[14] = biological target: Grb2 SH2 (UniProt P62993); assay: SH2 binding enrichment of the phosphorylated peptide, bacterial display (enrichment ratio); higher = better substrate or ligand; peptides without Tyr show the background
[15] = biological target: SHP2-C SH2; assay: as above
[16] = biological target: c-Src SH2; assay: as above
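Wherever SH2 binding enrichment of the phosphorylated peptide, bacterial display is given: peptide library displayed on the E. coli surface as eCPX fusions, selected cells deep-sequenced, score is each peptide's frequency after selection divided by its frequency in the input.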
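Wherever phosphorylation enrichment, bacterial display is given: 11-residue human phosphosite peptides and single-mutation variants displayed on the E. coli surface, counted by deep sequencing, each peptide's frequency after selection divided by its frequency in the unselected input library; frequency after pTyr selection over input frequency; kinase dosed for 20-30% of maximal phosphorylation in three min.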

Chain of Jak2 (O60674 whole entry, looked up): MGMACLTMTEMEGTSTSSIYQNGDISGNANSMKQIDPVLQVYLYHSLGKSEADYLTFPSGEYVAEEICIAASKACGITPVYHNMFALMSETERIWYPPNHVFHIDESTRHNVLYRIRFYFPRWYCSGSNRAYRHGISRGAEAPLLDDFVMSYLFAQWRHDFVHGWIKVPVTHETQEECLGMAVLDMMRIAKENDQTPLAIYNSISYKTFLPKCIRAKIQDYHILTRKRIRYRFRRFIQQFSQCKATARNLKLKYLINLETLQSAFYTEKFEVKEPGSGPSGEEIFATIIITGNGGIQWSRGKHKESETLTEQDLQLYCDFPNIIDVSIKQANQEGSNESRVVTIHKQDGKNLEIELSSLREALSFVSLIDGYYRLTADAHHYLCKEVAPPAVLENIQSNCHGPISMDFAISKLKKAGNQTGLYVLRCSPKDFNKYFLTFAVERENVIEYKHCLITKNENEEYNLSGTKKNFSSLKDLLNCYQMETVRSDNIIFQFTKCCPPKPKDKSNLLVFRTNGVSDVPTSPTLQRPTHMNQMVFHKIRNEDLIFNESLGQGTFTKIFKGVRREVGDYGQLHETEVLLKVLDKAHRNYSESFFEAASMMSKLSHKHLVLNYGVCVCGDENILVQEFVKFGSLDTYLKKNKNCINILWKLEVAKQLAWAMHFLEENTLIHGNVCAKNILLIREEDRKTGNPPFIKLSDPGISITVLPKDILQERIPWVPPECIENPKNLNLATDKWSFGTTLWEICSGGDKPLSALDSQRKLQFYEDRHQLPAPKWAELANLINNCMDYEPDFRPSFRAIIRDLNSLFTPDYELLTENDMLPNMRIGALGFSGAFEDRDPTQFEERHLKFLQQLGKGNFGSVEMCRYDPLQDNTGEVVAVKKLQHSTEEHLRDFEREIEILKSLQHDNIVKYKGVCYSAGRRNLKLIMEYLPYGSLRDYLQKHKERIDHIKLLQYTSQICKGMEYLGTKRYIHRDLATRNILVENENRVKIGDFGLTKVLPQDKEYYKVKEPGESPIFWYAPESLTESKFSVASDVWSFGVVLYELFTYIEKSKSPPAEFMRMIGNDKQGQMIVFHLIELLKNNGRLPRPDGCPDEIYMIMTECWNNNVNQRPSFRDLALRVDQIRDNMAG
Chain of FGFR1 (P11362 whole entry, looked up): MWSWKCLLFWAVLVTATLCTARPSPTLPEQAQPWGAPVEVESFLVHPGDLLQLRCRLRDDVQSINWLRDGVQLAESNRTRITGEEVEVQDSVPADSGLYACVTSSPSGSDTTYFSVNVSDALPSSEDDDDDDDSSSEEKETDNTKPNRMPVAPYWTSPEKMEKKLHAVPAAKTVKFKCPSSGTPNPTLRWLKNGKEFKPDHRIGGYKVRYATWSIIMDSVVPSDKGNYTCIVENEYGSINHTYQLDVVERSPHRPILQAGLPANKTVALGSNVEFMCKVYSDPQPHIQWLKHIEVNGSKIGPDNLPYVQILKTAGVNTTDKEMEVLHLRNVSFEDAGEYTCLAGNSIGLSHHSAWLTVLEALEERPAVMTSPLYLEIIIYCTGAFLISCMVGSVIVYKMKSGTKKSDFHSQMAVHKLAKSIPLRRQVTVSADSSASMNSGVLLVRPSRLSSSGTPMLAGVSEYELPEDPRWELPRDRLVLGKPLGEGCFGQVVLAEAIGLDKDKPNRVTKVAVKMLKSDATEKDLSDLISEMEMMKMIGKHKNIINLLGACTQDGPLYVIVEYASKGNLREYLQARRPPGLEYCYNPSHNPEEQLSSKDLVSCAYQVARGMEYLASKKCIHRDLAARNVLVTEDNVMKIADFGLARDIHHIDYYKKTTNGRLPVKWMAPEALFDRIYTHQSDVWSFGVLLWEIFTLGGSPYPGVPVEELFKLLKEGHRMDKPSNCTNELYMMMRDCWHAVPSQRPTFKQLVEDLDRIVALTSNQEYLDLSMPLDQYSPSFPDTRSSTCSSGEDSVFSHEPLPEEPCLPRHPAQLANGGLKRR
Chain of EPHB1 (P54762 whole entry, looked up): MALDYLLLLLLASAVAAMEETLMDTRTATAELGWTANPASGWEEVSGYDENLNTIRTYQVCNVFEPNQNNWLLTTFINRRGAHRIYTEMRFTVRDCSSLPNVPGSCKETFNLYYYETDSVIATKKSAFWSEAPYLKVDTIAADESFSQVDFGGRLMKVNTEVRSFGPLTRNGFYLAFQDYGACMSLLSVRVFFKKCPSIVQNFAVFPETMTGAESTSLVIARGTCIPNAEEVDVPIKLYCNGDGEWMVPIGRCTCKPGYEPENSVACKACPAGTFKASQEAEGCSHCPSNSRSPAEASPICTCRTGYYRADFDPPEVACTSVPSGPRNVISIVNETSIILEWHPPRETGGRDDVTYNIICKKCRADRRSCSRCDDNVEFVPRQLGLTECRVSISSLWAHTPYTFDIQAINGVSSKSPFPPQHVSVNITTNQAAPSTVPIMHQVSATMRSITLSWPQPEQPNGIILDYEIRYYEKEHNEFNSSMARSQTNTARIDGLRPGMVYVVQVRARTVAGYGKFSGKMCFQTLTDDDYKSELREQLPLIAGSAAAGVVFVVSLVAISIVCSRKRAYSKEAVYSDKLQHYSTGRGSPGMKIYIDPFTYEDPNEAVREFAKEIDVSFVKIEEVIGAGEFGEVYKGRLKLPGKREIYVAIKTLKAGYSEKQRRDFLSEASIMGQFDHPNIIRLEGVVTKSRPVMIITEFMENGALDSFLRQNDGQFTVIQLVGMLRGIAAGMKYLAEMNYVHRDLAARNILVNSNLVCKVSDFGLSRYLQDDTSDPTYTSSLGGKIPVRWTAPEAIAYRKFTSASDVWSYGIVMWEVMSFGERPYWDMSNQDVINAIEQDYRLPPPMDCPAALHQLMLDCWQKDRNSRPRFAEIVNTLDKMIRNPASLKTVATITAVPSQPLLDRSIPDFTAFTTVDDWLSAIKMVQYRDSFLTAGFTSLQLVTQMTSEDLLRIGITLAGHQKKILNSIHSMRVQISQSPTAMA
Chain of EPHB2 (P29323 whole entry, looked up): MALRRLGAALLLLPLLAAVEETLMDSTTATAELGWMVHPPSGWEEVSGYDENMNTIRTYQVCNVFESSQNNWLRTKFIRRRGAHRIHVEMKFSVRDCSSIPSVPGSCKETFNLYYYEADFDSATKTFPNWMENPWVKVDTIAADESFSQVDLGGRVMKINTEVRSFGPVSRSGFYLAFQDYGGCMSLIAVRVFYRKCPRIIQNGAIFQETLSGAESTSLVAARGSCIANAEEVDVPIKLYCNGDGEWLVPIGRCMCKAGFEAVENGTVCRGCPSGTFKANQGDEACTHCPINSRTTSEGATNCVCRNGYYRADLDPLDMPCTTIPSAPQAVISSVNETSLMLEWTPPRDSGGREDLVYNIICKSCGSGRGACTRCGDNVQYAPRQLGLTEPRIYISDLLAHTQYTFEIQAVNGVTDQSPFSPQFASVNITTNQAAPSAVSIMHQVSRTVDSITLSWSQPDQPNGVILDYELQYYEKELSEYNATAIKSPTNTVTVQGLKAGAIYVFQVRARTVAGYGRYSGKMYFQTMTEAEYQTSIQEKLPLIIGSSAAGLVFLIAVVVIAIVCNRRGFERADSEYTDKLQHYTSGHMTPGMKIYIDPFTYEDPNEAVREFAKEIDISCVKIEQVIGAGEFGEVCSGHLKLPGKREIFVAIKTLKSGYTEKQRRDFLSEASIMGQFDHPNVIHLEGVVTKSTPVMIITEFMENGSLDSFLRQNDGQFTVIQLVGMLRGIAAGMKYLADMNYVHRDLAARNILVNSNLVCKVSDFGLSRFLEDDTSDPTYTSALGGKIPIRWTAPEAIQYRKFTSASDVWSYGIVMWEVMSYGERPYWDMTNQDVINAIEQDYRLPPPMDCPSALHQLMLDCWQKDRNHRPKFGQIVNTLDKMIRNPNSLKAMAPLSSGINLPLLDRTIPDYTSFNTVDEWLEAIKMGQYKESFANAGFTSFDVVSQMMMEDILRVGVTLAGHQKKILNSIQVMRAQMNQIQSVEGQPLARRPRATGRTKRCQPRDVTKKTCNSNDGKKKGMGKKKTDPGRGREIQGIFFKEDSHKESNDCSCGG
Chain of MERTK (Q12866 whole entry, looked up): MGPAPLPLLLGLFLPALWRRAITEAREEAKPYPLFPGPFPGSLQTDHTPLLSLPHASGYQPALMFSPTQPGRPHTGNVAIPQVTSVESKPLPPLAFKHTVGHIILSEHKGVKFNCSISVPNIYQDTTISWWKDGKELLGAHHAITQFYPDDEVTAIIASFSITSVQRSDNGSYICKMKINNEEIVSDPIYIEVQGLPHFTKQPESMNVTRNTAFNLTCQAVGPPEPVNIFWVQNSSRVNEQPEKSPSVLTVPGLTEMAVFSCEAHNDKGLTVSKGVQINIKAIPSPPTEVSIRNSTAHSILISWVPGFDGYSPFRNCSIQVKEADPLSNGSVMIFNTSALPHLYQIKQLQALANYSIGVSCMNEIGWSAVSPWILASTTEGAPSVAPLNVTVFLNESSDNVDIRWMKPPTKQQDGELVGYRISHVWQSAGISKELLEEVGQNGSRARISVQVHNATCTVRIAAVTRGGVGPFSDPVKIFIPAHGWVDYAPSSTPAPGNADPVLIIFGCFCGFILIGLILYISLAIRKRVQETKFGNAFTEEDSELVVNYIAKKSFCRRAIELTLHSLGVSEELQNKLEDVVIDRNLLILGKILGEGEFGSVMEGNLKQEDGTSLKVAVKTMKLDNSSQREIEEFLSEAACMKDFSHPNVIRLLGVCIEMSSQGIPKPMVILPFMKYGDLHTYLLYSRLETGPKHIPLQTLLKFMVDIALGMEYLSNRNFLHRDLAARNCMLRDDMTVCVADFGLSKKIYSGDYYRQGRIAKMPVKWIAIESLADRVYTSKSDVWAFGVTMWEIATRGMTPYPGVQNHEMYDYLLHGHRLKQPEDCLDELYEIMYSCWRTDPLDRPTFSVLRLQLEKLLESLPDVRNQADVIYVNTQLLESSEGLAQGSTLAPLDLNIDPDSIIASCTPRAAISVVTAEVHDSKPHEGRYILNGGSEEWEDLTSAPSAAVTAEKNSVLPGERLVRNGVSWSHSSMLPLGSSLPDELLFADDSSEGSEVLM

| Sequence | phosphorylation enrichment [1] | phosphorylation enrichment [2] | phosphorylation enrichment [3] | phosphorylation enrichment [4] | phosphorylation enrichment [5] | phosphorylation enrichment [6] | phosphorylation enrichment [7] | phosphorylation enrichment [8] | phosphorylation enrichment [9] | phosphorylation enrichment [10] | phosphorylation enrichment [11] | phosphorylation enrichment [12] | phosphorylation enrichment [13] | SH2 binding enrichment [14] | SH2 binding enrichment [15] | SH2 binding enrichment [16] |
| --- | --- | --- | --- | --- | --- | --- | --- | --- | --- | --- | --- | --- | --- | --- | --- | --- |
| IALNSYHSRNC [IFNGR1_Y397] | 0.584 | 0.383 | 0.492 | 0.464 | 0.525 | 0.347 | 0.715 | 0.417 | 0.469 | 0.521 | 0.469 | 0.599 | 0.4 | 0.917 | 0.814 | 0.534 |
| ICGVSYDEYRY [CFTR_Y512_F508C] | 1.46 | 0.733 | 0.704 | 0.478 | 1.01 | 0.599 | 1.58 | 0.637 | 0.633 | 1.26 | 0.463 | 0.943 | 1.11 | 0.751 | 0.681 | 1.77 |
| IDFARYWHGND [MMP11_Y162_D166N] | 0.918 | 0.556 | 0.486 | 0.508 | 0.551 | 0.423 | 0.835 | 0.431 | 0.479 | 0.564 | 0.372 | 0.504 | 0.345 | 0.807 | 0.708 | 0.525 |
| IFGVSYGEFRF [CFTR_Y512_D513G_YF] | 0.941 | 0.576 | 0.561 | 0.383 | 0.646 | 0.504 | 1.09 | 5.32 | 4.06 | 0.99 | 0.465 | 0.779 | 5.39 | 1.06 | 1.08 | 0.705 |
| IFHLSYIHNCE [PDE6B_Y227_L228I_YF] | 1.16 | 0.699 | 0.71 | 0.495 | 0.91 | 0.526 | 1.35 | 0.494 | 0.577 | 1.04 | 0.392 | 0.745 | 0.352 | 0.976 | 0.856 | 0.853 |
| IGEGTYRTVFK [CDK5_Y15_G16R] | 0.542 | 0.362 | 0.432 | 0.353 | 0.533 | 0.317 | 0.738 | 0.459 | 0.532 | 0.781 | 0.384 | 0.638 | 0.558 | 0.674 | 0.614 | 0.47 |
| IGEVVYQRAVM [GRIN2A_Y502] | 0.869 | 0.883 | 0.554 | 0.434 | 0.595 | 1.46 | 0.856 | 1.14 | 2.19 | 0.688 | 0.513 | 8.27 | 1.57 | 0.752 | 0.484 | 0.477 |
| IHETTHNSIMK [ACTA1_Y281_Y281H] | 0.452 | 0.304 | 0.349 | 0.425 | 0.39 | 0.347 | 0.469 | 0.43 | 0.463 | 0.471 | 0.38 | 0.401 | 0.262 | 0.736 | 0.537 | 0.43 |
| IHFAIYLLKFS [ARMC9_Y107_YF] | 0.891 | 0.561 | 0.457 | 0.363 | 0.684 | 0.303 | 1.06 | 0.458 | 0.521 | 1.03 | 0.414 | 0.668 | 0.499 | 1.69 | 1.45 | 1.13 |
| IHHIDYYKKTT [FGFR1_Y653] | 0.783 | 0.408 | 0.544 | 0.473 | 0.484 | 0.961 | 0.741 | 0.381 | 0.425 | 0.534 | 0.508 | 0.524 | 0.487 | 0.793 | 1.22 | 0.567 |
| IHRWVYPLTPE [EIF2B5_Y319_R315H] | 1.03 | 0.525 | 0.503 | 0.488 | 0.698 | 0.405 | 0.918 | 0.511 | 0.487 | 0.885 | 0.487 | 0.621 | 0.446 | 1.25 | 1.29 | 1.06 |
| IIQRAYRRHLL [SCN1A_Y1926] | 0.845 | 0.479 | 0.433 | 0.499 | 0.525 | 0.497 | 0.619 | 0.509 | 0.576 | 0.491 | 0.608 | 0.552 | 0.584 | 0.769 | 0.381 | 0.439 |
| IIRQLYLKWHP [SACS_Y4333_R4331Q] | 0.888 | 0.469 | 0.444 | 0.473 | 0.604 | 0.4 | 1.02 | 0.38 | 1.12 | 1.01 | 1.08 | 0.608 | 0.509 | 1.77 | 1.59 | 1.47 |
| IITDFYVDMKF [MPP4_Y567_V562I_YF] | 1.31 | 1.41 | 1.08 | 1.37 | 1.39 | 0.953 | 1.66 | 0.527 | 0.722 | 1.75 | 0.511 | 0.905 | 0.58 | 0.799 | 0.906 | 0.452 |
| IKKLIYVHLVI [JAGN1_Y42] | 1.02 | 0.669 | 0.59 | 0.604 | 0.842 | 0.592 | 1.32 | 0.496 | 0.671 | 0.982 | 0.569 | 0.852 | 0.424 | 1.1 | 0.775 | 0.631 |
| IKNSGYISRFL [EIF2AK3_Y585_YF] | 0.564 | 0.366 | 0.455 | 0.367 | 0.495 | 0.286 | 0.669 | 0.348 | 0.379 | 0.61 | 0.44 | 0.537 | 0.43 | 1.24 | 1.1 | 0.793 |
| ILIFHYAKGQP [MPZ_Y82_S78L] | 1.32 | 0.753 | 0.705 | 0.612 | 0.85 | 0.819 | 1.37 | 0.504 | 0.674 | 1.01 | 0.475 | 0.904 | 0.508 | 1.47 | 1.27 | 1.1 |

| Sequence | phosphorylation enrichment [1] | phosphorylation enrichment [2] | phosphorylation enrichment [3] | phosphorylation enrichment [4] | phosphorylation enrichment [5] | phosphorylation enrichment [6] | phosphorylation enrichment [7] | phosphorylation enrichment [8] | phosphorylation enrichment [9] | phosphorylation enrichment [10] | phosphorylation enrichment [11] | phosphorylation enrichment [12] | phosphorylation enrichment [13] | SH2 binding enrichment [14] | SH2 binding enrichment [15] | SH2 binding enrichment [16] |
| --- | --- | --- | --- | --- | --- | --- | --- | --- | --- | --- | --- | --- | --- | --- | --- | --- |
| IMAYFYMCDSA [CASD1_Y382_R386S] | 1.38 | 0.845 | 0.643 | 2.24 | 2.25 | 0.597 | 1.5 | 0.523 | 0.51 | 1.93 | 0.505 | 1.07 | 0.69 | 1.08 | 0.702 | 0.677 |
| INMKKYCKKDY [NTN1_Y490] | 0.626 | 0.424 | 0.298 | 0.45 | 0.592 | 0.434 | 0.912 | 0.391 | 0.461 | 0.698 | 0.402 | 0.824 | 0.401 | 0.948 | 0.864 | 0.87 |
| INNKMYDPKMN [ENPP1_Y280_D276N] | 0.535 | 0.44 | 0.432 | 0.389 | 0.491 | 0.482 | 0.609 | 0.397 | 0.436 | 0.556 | 0.354 | 0.473 | 0.449 | 0.707 | 0.69 | 0.442 |
| IQKWEYVPLGT [FAH_Y244_P249T] | 0.954 | 0.768 | 0.532 | 1.06 | 0.723 | 0.416 | 0.866 | 0.475 | 0.428 | 1.23 | 0.328 | 0.564 | 0.384 | 0.837 | 0.497 | 0.817 |
| IRQDDYESLKE [MTR_Y921_H920D] | 1.32 | 0.633 | 0.553 | 0.5 | 0.608 | 0.463 | 1.15 | 0.455 | 0.571 | 1.13 | 0.474 | 1 | 0.533 | 0.907 | 0.707 | 0.514 |
| IRQGHYESLKE [MTR_Y921_D919G] | 0.573 | 0.392 | 0.34 | 0.419 | 0.567 | 0.652 | 0.768 | 0.466 | 0.519 | 0.85 | 0.457 | 0.443 | 0.45 | 0.951 | 0.765 | 5.48 |
| IRRIAYEFVEM [ADA_Y84_K80R] | 0.887 | 0.343 | 0.543 | 0.869 | 0.511 | 2.85 | 0.872 | 0.417 | 0.433 | 0.638 | 0.469 | 0.489 | 0.458 | 0.542 | 0.435 | 1.15 |
| ISIFFYAKGQP [MPZ_Y82_H81Y_YF] | 1.33 | 0.608 | 0.611 | 0.544 | 0.865 | 0.554 | 1.52 | 0.395 | 0.573 | 1.43 | 0.527 | 1.25 | 0.548 | 1.33 | 0.529 | 0.406 |
| ISPPVYLTNEW [NRK_Y885] | 1.13 | 0.694 | 0.724 | 0.704 | 0.718 | 0.698 | 1.09 | 0.825 | 0.732 | 1.1 | 0.542 | 0.92 | 0.766 | 1.03 | 1.11 | 0.655 |
| ISRASYFRKGG [ALK_Y1282_Y1278S_YF] | 0.664 | 0.4 | 0.37 | 0.341 | 0.388 | 0.456 | 0.724 | 0.419 | 0.435 | 0.59 | 0.469 | 0.597 | 0.506 | 0.755 | 0.484 | 0.45 |
| ISSLPYMKMIF [SLC4A11_Y853_M848I] | 1.05 | 0.536 | 0.547 | 0.696 | 0.665 | 1.11 | 1.07 | 0.457 | 0.677 | 1.35 | 0.668 | 0.872 | 0.79 | 1.19 | 1.52 | 1.61 |
| ISTAGYSIPEL [EDAR_Y406] | 0.807 | 0.525 | 0.464 | 0.416 | 0.697 | 0.436 | 0.92 | 0.397 | 0.534 | 0.745 | 0.713 | 1.46 | 0.457 | 0.796 | 0.893 | 7.33 |
| ITLKGYNLSNS [GNPTAB_Y728_K732N] | 0.66 | 0.385 | 0.487 | 0.525 | 0.618 | 0.433 | 0.639 | 0.488 | 0.477 | 0.547 | 0.381 | 0.466 | 0.448 | 1.05 | 0.884 | 0.627 |
| KAALSYVSEIG [BPIFB2_Y36] | 0.555 | 0.352 | 0.385 | 0.456 | 0.558 | 0.387 | 0.636 | 0.364 | 0.476 | 0.668 | 0.326 | 0.453 | 0.372 | 0.914 | 0.58 | 0.457 |
| KASGKYFAMKI [AKT3_Y173_YF] | 0.495 | 0.372 | 0.338 | 0.347 | 0.421 | 0.34 | 0.626 | 0.344 | 0.323 | 0.508 | 0.367 | 0.447 | 0.351 | 1.37 | 1.45 | 1.21 |
| KASIMYPSSNC [CXCL11_Y52_N55S] | 0.629 | 0.411 | 0.48 | 0.455 | 0.467 | 0.452 | 0.653 | 0.434 | 0.429 | 0.522 | 0.395 | 0.497 | 0.397 | 0.943 | 0.7 | 0.565 |
